Experimental data published in the supplement of paper PMC12042874.
± gives the uncertainty stated by the source.

experiment: amyloid nucleation score (Sup35N fusion, yeast selection) (log enrichment); library NNK1; higher = more nucleation; inactive = no reads after selection
In short: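 Peptides of 20 random codons fused to Sup35N were expressed in psi-negative yeast, induced 24 hours with 100 μM copper sulfate, then grown 7 days at 30°C on medium lacking adenine and uracil. Input and output plasmid inserts were Illumina-sequenced. Nucleation score is the DiMSum log enrichment of output over input reads, centred on the mode score of non-aggregating sequences, excluding sequences with under 100 input reads. Random libraries had three technical output replicates.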

Substance	amyloid nucleation score
HNQDSCIFGQYSDNEVNASV	-1.47 ± 1.6
VLSCLPHAINFFYPSRSK	1.05 ± 0.35
SLNVNLMSRVYSSAREGGVS	1.73 ± 0.2
GCTRNCSKCKGMHSQRHPYP	-0.837 ± 2.4
AVCYHGFRMATAASEVCGAS	0.327 ± 0.38
ERLGMWDSRMVQLWDSFCIE	0.363 ± 0.48
FVTNTWRVTVCPSQLFGILR	inactive
NMRYHGISCRYRKYYFRWLD	-0.261 ± 0.31
SWGMVFLNSRVPWRVMFNSC	0.154 ± 0.48
NSSYTCPNFRHTFCRYICYA	0.533 ± 0.27
LLLGDC	-1.43 ± 2.4
GWIRPVAKSRLWSFSPMEMI	-0.768 ± 0.62
QNRLS	2.28 ± 0.61
EWVLFDAHAGRLVVPEH	-0.995 ± 1
CTTNIPAKLHLNSVVRVVRA	-1.27 ± 2.7
FPNVDNNV	inactive
DVSPLVFVC	-0.407 ± 0.74
SAPIDISMQLC	-0.18 ± 1.7
SSLVVWNTQSSTLMTLLSYS	-0.915 ± 0.49
VTSYFKIRLCFPRGMASCTR	3.37 ± 0.19
KHQGNMTTINNKRAARLLGP	inactive
DWQSVRKFLRSVVIRMVSLV	-0.399 ± 0.24
IPMLFMSLRV	0.171 ± 0.26
WFICKYNQFDHDVLFSVSTA	1.92 ± 0.68
TVEGSRYFRSSLYHSARSHW	1.14 ± 0.55

Substance	amyloid nucleation score
ESMWVGLKINAVSNYR	0.3 ± 0.55
SAVQGCNGRCCYFGRGWWSG	3.4 ± 0.083
HLWFE	-0.146 ± 0.43
EKTYSCHECFFIWPRSY	-1.09 ± 0.75
ILFMLECGMSTTSCHKIRVC	-0.157 ± 0.36
FRHVQSMRACFLKSKYGATI	0.195 ± 0.84
RQGLGAVVNENV	0.137 ± 0.43
VSGSVFTNMIANILSTSRYV	-0.179 ± 1.6
SMTSWWVRGLLPVNGD	2.53 ± 0.13
TCMTRTLYIL	-0.092 ± 0.37
SYISLSLISFSVGGSSHFSM	6.96 ± 0.077
GCGFSWSLCGESPYAVRPVA	0.538 ± 0.55
RVTFLWLCLYQGMVALVNSP	-0.156 ± 0.84
RFSTTFYSVAVVYKRDSR	1.86 ± 0.24
NGTAVCLVRSLVYAHHGRQG	0.481 ± 0.38
FQKYGQCSHYRVVDRKLQCS	0.314 ± 1.4
EVRTEMIHCNLLTMRFCVLA	0.047 ± 0.64
MRSLSVLFGIRTCLTVQWSK	0.276 ± 0.66
LRTNTWCYGESSRLWGWCGG	0.067 ± 1.2
GYTRGDDSGAVHSLSWVFAG	-0.361 ± 1.7
FRSLSSGIFGACWWYMFYSM	0.229 ± 0.6
DIFHSLILHMDMYEG	0.811 ± 0.85
HSFSFCCSSYSCNLVGIELN	7.599 ± 0.043
WNIRGVMGLSNVR	-0.058 ± 0.29
WCDGYVMFLDTNCIRINHIL	-0.162 ± 0.24

Substance	amyloid nucleation score
CGWNFTVIHFSLDSVSHLLY	-0.568 ± 0.66
FFAGSQIFIHRSLEWI	1.68 ± 0.17
VWELGPFCDLEVRYV	0.531 ± 0.52
MMVLKFGMLVLSGDLAPATS	0.854 ± 0.72
NCTRWTLNTDVCSLDRHVPH	-0.5 ± 2.1
KFVVMGWGYLTIRVVSVTDK	1.92 ± 0.64
GRCVNVSCHIRRPQVGTPRA	1.07 ± 0.8
VITVRLFILW	-0.213 ± 0.43
NYASKLYFFLVVMSRFNRKG	-0.115 ± 1.7
SCLPDQMKVVVPLMWLKFSR	-0.266 ± 0.33
CKHVETK	-0.535 ± 1.4
GDSMV	-0.606 ± 0.4
AYLVFDGQ	-0.283 ± 0.37
FGHYALRANILLTPITKGMS	0.892 ± 0.56
DFLRIRVAKKSLDMGFIV	-0.251 ± 0.36
CIFPRCVYLYHSVWVDVVGC	-0.097 ± 0.61
LMYQSFRLTGSYVVIFLYES	-0.543 ± 1.1
TIFVPGALVDFAAGGTHQLI	-0.088 ± 1.3
ADSHYSDVGGYWMNSSLCK	1.31 ± 0.8
CSSKGCLVSESFLHLMTNLC	0.969 ± 0.42
QRNVPIGLVRYDAV	0.45 ± 1.1
WIMVFWEFVNLTCNNRILDN	-0.588 ± 0.72
GLCNGCIFWRVKRIKGLKWF	-0.381 ± 0.22
LPSIYSFSSCNVVEDEGQM	-0.685 ± 1.2
LASGNILAICWTRSEGSDTL	-0.313 ± 1.1

Substance	amyloid nucleation score
AWRIIPGILAFTFEEM	-0.428 ± 0.79
YLLRVCAAMMFSKLCNG	6.028 ± 0.049
KCLSLNCMPYTFLLSRYYPY	inactive
LTYRVFIHYRSRQYVFGTVS	-0.667 ± 0.62
ADEVMKRRQLLINIVEYFMK	0.2 ± 0.38
NLFLVIPAFDLLMFGSERSS	5.55 ± 0.063
DTLGRSLLYYIRYSRVNFPV	inactive
HCYGIVEFSSSCCEFFRHGV	6.36 ± 0.092
LKFKARLRRTLPVQQNRAIG	inactive
PGLDFLGLLHQLISVFAIRL	0.111 ± 0.48
EALCSTSEGILHKEWF	0.178 ± 0.28
VATRYWSRLCTMFVHSTRTT	inactive
CSNRWCLKTRVERVMERGSV	0.218 ± 0.54
VIYSSIHKLSDGDRVENPRS	-0.933 ± 0.96
YQTWRQWLLFACRVSECYDM	-0.508 ± 1.1
MWTFWFSVCTYLFL	2.37 ± 0.2
NRLIGGLFSCVCTADQSTHS	8.419 ± 0.047
LAMSSQSHYCKRRSVCRKSV	0.786 ± 0.81
DKTKLLLTLRNWLSP	0.177 ± 0.56
DRITLLRYPWKSIAISIDEG	0.993 ± 0.36
MVVVVRTVLQVMRGR	0.189 ± 0.76
SDFTIINFQYFLASCCTGYV	7.602 ± 0.048
CESGW	-0.115 ± 1.2
GVFVKGWYWKWGMGDELQAA	0.182 ± 0.79
GLLMISISYLITRMVFMDNI	0.412 ± 0.39

Substance	amyloid nucleation score
TSHPFLLQFMDDPFELSLAQ	-0.714 ± 0.48
YCWRVSHLGNGRYRLSLSFG	inactive
TIECFYGVVSFRHNQYYGAQ	2.16 ± 0.17
IIRFTTFPCFNVR	2.1 ± 0.13
QVSANSY	3.59 ± 0.082
LYGFLICLCDSYVRGH	0.213 ± 0.49
HPALKWLCPGIERLCLAWSG	0.818 ± 0.61
CLKWTVNIDGFIPDARLPRS	3.18 ± 0.18
ILIAIMNFARSEVVTNGHIR	2.13 ± 0.41
NGLFIRYSVVMAYSELEVVG	-0.162 ± 0.7
KQNNGFGWEYEAGGLHRKGA	-0.989 ± 2.7
CSVTLVVRV	0.676 ± 0.63
TRTTKMAH	1.24 ± 0.45
KGYYDFRGVSLMVPVMFTMS	0.048 ± 0.38
VSFGIFMNESYV	1.52 ± 0.098
WCSKYCMMPSFPTMSRPVPL	-0.426 ± 0.44
NARWSGISFQC	-0.115 ± 0.87
SPTTKCLPSERSSINCNLMT	0.311 ± 0.68
NAFCHAYSI	-1.49 ± 1.2
HTLDSISGSCGPLIAIVDFQ	inactive
RGLGWHHRLSCYRSAGFARA	-0.719 ± 2.1
FSREYL	-0.251 ± 0.3
LYGNT	1.37 ± 0.38
PLYGC	0.634 ± 0.72
YKNFKFSDDTRMFVNNVSVY	1.25 ± 0.56

Substance	amyloid nucleation score
LFVRKVIYVDR	0.379 ± 0.33
ASNYGQWSCHPGRSLFVQFF	4.56 ± 0.11
KVFSVHRHCQESVVGAVLCS	-0.371 ± 0.73
EMSIILGIERRNHCVPAMVS	-0.552 ± 1.9
CVANLPGSKVLVWNTKFK	5.38 ± 0.056
TIVRGSNYRPPVWPSDY	-0.535 ± 1.1
ILVVAVI	-0.64 ± 0.39
YILWHEIFQDCLTRDIIRLM	0.248 ± 0.54
AVLSPGWWESLYPRRVVHSC	-0.354 ± 0.54
YMQGDYM	inactive
TSNIRVLGHAMVNWVCWGRD	3.18 ± 0.18
RFGFSLSADIMDPRMIVRCM	-0.227 ± 0.24
NARPYRPSFILQSL	-0.698 ± 0.54
KFFHLAIMWFTPSSPHKGTC	-0.496 ± 0.62
HVWRDGSE	1.82 ± 0.54
FELGLNCCFLGLVVYAQVNA	inactive
RSRGCPRIFNGAKC	-0.392 ± 0.23
VERGY	1.03 ± 0.61
RMLLRFYIATGYLWSIQNCR	inactive
FKEFTAIDKSRSVLLNLEPD	inactive
MIRQYDCSVFKCRERYFWAF	0.675 ± 0.85
NAIGILRHLTRMFPFD	0.747 ± 0.44
NMVSCGDALR	-0.554 ± 1.7
SCTPWAVLFMLKSALGSLRG	0.708 ± 0.71
YNELKFRGYYNRCLECGFVR	0.495 ± 0.91

Substance	amyloid nucleation score
ELFAFCMVPYYTRNMLWLVG	0.584 ± 0.97
NCHSSFYGNDIGGLSHVMCL	1.89 ± 0.7
LNNYNGVTVGWGNSWYLYLG	-0.116 ± 0.45
LSFIKRMTMNMLTKLD	1.68 ± 0.13
LLYVRVHCLTAGFADSEASI	-0.168 ± 0.4
SCKLIDRAILICWRSPTALV	0.109 ± 1.6
VAEEYSN	inactive
CRLVVMVIVQLHGIDFELAL	0.951 ± 0.54
RFYKCVLDVNTHLV	0.883 ± 0.6
VLYGADDVLVRVSTCVYMGG	-0.136 ± 0.25
FVLCFFLACGITRNGMPCMV	1.26 ± 0.76
AVRGINCCKRQSWKCNLCM	0.915 ± 0.56
LIQIDLF	-0.264 ± 0.56
TNRPAPLPSYRTILCK	0.7 ± 0.97
TYSSARDSS	-0.209 ± 0.63
YNTCECFSFLTCKWLNKMDG	2.79 ± 0.16
YHFTSFSNVHHLAHRVGNSF	-0.333 ± 1.4
YTRVLILNENATAIIWSE	1.87 ± 0.4
DDPLNVTHKVRN	5.31 ± 0.069
VTARTRSDS	0.55 ± 0.55
